B1: desmin (intact chicken gizzard desmin) (natural protein, UniProt P02542 1-464, looked up)
chain: MSQSYSSSQRVSSYRRTFGGGTSPVFPRASFGSRGSGSSVTSRVYQVSRTSAVPTLSTFRTTRVTPLRTYQSAYQGAGELLDFSLADAMNQEFLQTRTNEKVELQELNDRFANYIEKVRFLEQQNALMVAEVNRLRGKEPTRVAEMYEEELRELRRQVDALTGQRARVEVERDNLLDDLQKLKQRLQEEIQLKEEAENNLAAFRADVDAATLARIDLERRIESLQEEIAFLKKVHEEEIRELQAQLQEQHIQVEMDISKPDLTAALRDIRAQYESIAAKNIAEAEEWYKSKVSDLTQAANKNNDALRQAKQEMLEYRHQIQSYTCEIDALKGTNDSLMRQMREMEERFAGEAGGYQDTIARLEEEIRHLKDEMARHLREYQDLLNVKMALDVEIATYRKLLEGEENRISIPMHQTFASALNFRETSPDQRGSEVHTKKTVMIKTIETRDGEVVSEATQQQHEVL

Key:
[1] = molecular target: L-desmin (desmin lacking its carboxy-terminal 27 residues) (chicken); assay: cross-linking
cross-linking = molecular target: the molecule itself; assay: cross-linking

| Molecule | stoichiometry N [1] | stoichiometry N (cross-linking) |
| --- | --- | --- |
| L-desmin (desmin lacking its carboxy-terminal 27 residues) (domain or fragment) | 4 | – |
| B1 | – | 4 |

— paper PMC2116342 (The Journal of Cell Biology, 1990)
